Data taken from US20050203007A1 (REGENTS OF THE UNIVERSITY OF MICHIGAN, published 2005).
Blank lines part the entries; values can stand above or below the binder they belong to.

Experiments:
secreted, soluble furin [1] = biological target: T1, secreted, soluble furin (human, UniProt P09958 108-715, limits assumed); assay: rapid inhibition assay; listed as potent inhibitor of furin
T1 construct: Secreted, soluble construct; also called human furin
Procedure: (§1) 5. Rapid protease inhibition assay. Novel eglin variants were diluted 50-fold and incubated with secreted, soluble furin (0.5 nM) for 15 min in 96-well plates. The furin substrate (Boc-Arg-Val-Arg-Arg-MCA) was added, and release of AMC was monitored continuously in a 96-well fluorescence plate reader for 20 min, as described under Example 1. […] The plasmid DNA encoding such eglin c variant inhibitors were isolated and sequenced.

human plasmin = human plasmin (human, UniProt P00747 97-810, limits assumed); assay: enzyme inhibition; weak inhibition
human plasma kallikrein = human plasma kallikrein (human, UniProt P03952 20-638); assay: enzyme inhibition; weak inhibition
secreted, soluble furin [2] = biological target: T1, secreted, soluble furin; assay: equilibrium enzyme inhibition
Procedure: (§2) Thus, R1-eglin refers to substitution of Arg at position P1.
(§3) Affinities of eglin variants with secreted, soluble Kex2 (hereafter “Kex2”; Brenner, C. and Fuller, R. S. (1992) Proc. Natl. Acad. Sci. USA 89: 922-926) and secreted, soluble furin (hereafter, “furin”; Bravo, D. A. et al (1994) J. Biol. Chem. 269: 25830-25837; and Komiyama & Fuller (2000) Biochemistry 39: 15156-15165) were measured by incubating variants with the enzymes (˜0.5 to 2.0 nM) for 45 min to 1 h at 21° C. in one of two enzyme assay buffers. For Kex2, the buffer was 200 mM Bistris (pH 7.27) containing 1 mM CaCl₂ and 0.1% Triton X-100; and for furin, the buffer was 20 mM NaMES (pH 7.0) containing 1 mM CaCl₂ and 0.1% Triton X-100 for furin.

secreted, soluble Kex2 [3] = biological target: T2, secreted, soluble Kex2 (Saccharomyces cerevisiae, UniProt P13134 114-613, limits assumed); assay: equilibrium enzyme inhibition
T2 construct: Secreted, soluble construct; also called kexin
T2 sequence (looked up): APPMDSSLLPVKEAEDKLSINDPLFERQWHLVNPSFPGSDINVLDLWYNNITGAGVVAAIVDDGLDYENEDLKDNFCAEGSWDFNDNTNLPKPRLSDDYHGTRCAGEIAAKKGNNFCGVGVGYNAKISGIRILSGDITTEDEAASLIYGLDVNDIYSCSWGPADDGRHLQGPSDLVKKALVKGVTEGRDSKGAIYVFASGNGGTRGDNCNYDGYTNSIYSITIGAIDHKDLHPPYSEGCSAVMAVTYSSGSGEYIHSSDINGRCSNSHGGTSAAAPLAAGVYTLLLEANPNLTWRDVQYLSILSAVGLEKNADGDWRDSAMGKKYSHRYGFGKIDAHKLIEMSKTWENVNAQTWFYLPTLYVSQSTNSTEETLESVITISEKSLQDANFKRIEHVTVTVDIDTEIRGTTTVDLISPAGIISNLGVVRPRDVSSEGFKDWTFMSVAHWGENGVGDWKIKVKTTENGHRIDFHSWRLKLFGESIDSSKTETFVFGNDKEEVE
Procedure: as §2, §3

secreted, soluble furin [4] = biological target: T1, secreted, soluble furin; assay: equilibrium enzyme inhibition, fluorogenic substrate
Procedure: (§4) Affinities of eglin variants with secreted, soluble Kex2 (hereafter “Kex2”; Brenner, C. and Fuller, R. S. (1992) Proc. Natl. Acad. Sci. USA 89: 922-926) and secreted, soluble furin (hereafter, “furin”; Bravo, D. A. et al (1994) J. Biol. Chem. 269: 25830-25837; and Komiyama & Fuller (2000) Biochemistry 39: 15156-15165) were measured by incubating variants with the enzymes (˜0.5 to 2.0 nM) for 45 min to 1 h at 21° C. in one of two enzyme assay buffers. For Kex2, the buffer was 200 mM Bistris (pH 7.27) containing 1 mM CaCl₂ and 0.1% Triton X-100; and for furin, the buffer was 20 mM NaMES (pH 7.0) containing 1 mM CaCl₂ and 0.1% Triton X-100 for furin. 100 to 200 μL aliquots of reaction mixtures were transferred into triplicate wells of opaque 96 well plates (Costar), and residual enzyme activity was measured with an fmax fluorescence micro plate reader (Molecular Devices) by monitoring hydrolysis of a fluorogenic substrate Boc-Arg-Val-Arg-Arg-MCA. Data were graphically analyzed (KaleidaGraph) with an equation developed by Green and Work (1953). Site-directed mutagenesis at P2 and P6 of eglin c generated temporary inhibitors (Table 3) and exhausted possibility to improve affinity further with this approach.

secreted, soluble Kex2 [5] = biological target: T2, secreted, soluble Kex2; assay: as above
Procedure: as §4

subtilisin Carlsberg [6] = biological target: T3, subtilisin Carlsberg (UniProt P00780 106-379); assay: enzyme inhibition
T3 sequence (looked up): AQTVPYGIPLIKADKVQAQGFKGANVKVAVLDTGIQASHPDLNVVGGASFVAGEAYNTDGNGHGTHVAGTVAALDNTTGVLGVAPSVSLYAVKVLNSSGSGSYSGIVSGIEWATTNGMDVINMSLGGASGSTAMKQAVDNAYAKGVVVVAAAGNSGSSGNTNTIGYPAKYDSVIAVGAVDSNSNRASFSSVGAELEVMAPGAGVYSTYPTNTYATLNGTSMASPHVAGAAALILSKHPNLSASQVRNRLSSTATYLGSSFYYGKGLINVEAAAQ

trypsin [7] = assay: enzyme inhibition
subtilisin Carlsberg [8] = biological target: T3, subtilisin Carlsberg; assay: enzyme inhibition, standard assay conditions
[9] = biological target: T4, human neutrophil elastase (human, UniProt P08246 30-247); assay: enzyme inhibition, standard assay conditions
T4 sequence (looked up): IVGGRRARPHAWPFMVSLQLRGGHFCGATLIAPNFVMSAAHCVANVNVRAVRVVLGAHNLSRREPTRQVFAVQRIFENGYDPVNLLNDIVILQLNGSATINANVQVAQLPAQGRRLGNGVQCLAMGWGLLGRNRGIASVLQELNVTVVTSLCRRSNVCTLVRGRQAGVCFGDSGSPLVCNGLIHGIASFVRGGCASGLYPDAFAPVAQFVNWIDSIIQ

chymotrypsin = assay: enzyme inhibition, standard assay conditions
secreted, soluble Kex2 [10] = biological target: T2, secreted, soluble Kex2; assay: rapid inhibition assay; listed as potent inhibitor of Kex2
secreted, soluble furin [11] = biological target: T1, secreted, soluble furin; assay: rapid furin inhibition assay; table lists substitutions with equal or enhanced inhibition of furin relative to the template
Procedure: 3. Rapid screening of libraries. Libraries were introduced into E. coli BL21 (DE3) cells and individual, cloned transformants were grown by shaking at 37° C. in 200 μl LB containing […] kanamycin in 96-well, 0.45 μm GHP membrane filter plates (Gelman) (FIG. 2). When O.D. 600 values reached 0.4, 60 μl of culture were transferred to secondary 96-well plates (Falcon), adjusted to 10% glycerol, and stored at −80° C. These frozen stocks served as master copies of the libraries. IPTG was added to the cultures to a final concentration of 1 mM, and the cultures were allowed to express eglin c variants for one hour in the filter plate. Expressed eglin c variants were extracted from the cells with 50 mM Tris-HCl pH 8.0 containing 2 mM EDTA following freezing and thawing. These extracts were collected as filtrates by centrifugation of the filter plate above a second plate. The filtrates, representing partially purified eglin c variants, were analyzed using a rapid fluorescence-based assay for processing enzyme inhibition as described below in Section 5. […] Frozen cells were cultured in 50 to 100 ml culture volumes, and DNA maxipreps were performed; the DNA preparations were then sequenced by automated DNA sequencing. Selected variants were expressed and purified on a larger scale, and affinities for furin or Kex2 were examined quantitatively (see below).
as §1

secreted, soluble furin [12] = biological target: T1, secreted, soluble furin; assay: ratio of affinities, enzyme inhibition
secreted, soluble furin [13] = biological target: T1, secreted, soluble furin; assay: enzyme inhibition, purified variant; Kassoc
human PC7 = biological target: T5, human PC7 (human, UniProt Q16549 142-667, limits assumed); assay: enzyme inhibition, purified variant; Kassoc
T5 sequence (looked up): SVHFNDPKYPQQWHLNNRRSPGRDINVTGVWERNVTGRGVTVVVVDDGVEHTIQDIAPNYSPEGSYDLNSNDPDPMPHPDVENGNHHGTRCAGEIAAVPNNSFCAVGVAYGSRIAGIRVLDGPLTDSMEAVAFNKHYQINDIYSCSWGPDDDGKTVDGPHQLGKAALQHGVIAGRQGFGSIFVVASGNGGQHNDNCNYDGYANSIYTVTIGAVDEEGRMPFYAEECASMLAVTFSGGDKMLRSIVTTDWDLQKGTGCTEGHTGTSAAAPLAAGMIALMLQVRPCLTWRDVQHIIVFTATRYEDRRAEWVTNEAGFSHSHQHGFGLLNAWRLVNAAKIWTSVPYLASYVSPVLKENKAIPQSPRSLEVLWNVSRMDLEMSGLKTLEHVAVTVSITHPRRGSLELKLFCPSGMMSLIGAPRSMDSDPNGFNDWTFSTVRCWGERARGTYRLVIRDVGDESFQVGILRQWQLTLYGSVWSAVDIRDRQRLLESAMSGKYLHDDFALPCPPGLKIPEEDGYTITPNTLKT

secreted, soluble Kex2 [14] = biological target: T2, secreted, soluble Kex2; assay: enzyme inhibition, purified variant; Kassoc
trypsin [15] = assay: enzyme inhibition; temporary inhibitor of trypsin
secreted, soluble Kex2 [16] = biological target: T2, secreted, soluble Kex2; assay: estimated from koff
Procedure: In some aspects of the present invention, biological application of the eglin c variants of the present invention as inhibitors of processing in vivo depends upon the rate of binding to target enzymes, where it is critical. Therefore, the rate of action of eglin variants with Kex2 and furin was examined by incubating 5×10⁻¹⁰ M enzyme with inhibitor at molar ratios of inhibitor to enzyme ranging from 10 to 80. […] The relationship between kobs and inhibitor concentration was linear. The values of kₒₙ were determined from the slope of such curves, and dissociation rate constants (koff) were calculated (koff=kₒₙ/Kₐ). For R4R1-eglin, koff was calculated to be 2×10⁻⁴s⁻¹ for Kex2, and 3×10⁻⁴s⁻¹ for furin. […] Similarly, the t_{1/2} of the complex of M4R1-eglin with Kex2 was estimated to be 3 h. For complex of R4K1-eglin with furin, koff was calculated to be 2×10⁻⁴s⁻¹ implying that the koff and t_{1/2} for this complex are similar to those for the complex of R4R1-eglin with furin.

T1 sequence (P09958 108-715 limits assumed): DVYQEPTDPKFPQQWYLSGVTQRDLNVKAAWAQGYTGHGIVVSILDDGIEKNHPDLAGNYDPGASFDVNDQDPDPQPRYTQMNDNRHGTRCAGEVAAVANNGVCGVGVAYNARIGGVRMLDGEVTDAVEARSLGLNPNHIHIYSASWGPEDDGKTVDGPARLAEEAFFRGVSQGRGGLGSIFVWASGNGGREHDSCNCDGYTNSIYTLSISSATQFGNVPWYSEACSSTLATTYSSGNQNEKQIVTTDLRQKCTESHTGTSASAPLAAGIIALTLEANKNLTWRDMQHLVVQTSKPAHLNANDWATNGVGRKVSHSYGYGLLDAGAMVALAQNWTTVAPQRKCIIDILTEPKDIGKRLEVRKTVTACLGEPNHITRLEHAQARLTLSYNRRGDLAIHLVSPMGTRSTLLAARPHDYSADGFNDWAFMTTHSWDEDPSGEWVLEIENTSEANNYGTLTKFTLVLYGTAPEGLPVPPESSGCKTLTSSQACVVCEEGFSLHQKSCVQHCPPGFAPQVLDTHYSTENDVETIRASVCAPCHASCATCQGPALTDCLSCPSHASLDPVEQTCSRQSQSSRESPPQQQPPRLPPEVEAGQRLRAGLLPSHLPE
Chain of trypsin (P00760 24-246): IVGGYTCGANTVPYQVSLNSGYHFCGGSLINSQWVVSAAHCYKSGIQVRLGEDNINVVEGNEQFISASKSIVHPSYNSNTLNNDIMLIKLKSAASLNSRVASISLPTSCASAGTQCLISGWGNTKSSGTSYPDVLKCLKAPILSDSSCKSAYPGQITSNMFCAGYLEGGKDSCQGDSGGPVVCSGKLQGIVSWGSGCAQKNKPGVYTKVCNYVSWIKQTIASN
Chain of human plasma kallikrein (P03952 20-638 limits assumed): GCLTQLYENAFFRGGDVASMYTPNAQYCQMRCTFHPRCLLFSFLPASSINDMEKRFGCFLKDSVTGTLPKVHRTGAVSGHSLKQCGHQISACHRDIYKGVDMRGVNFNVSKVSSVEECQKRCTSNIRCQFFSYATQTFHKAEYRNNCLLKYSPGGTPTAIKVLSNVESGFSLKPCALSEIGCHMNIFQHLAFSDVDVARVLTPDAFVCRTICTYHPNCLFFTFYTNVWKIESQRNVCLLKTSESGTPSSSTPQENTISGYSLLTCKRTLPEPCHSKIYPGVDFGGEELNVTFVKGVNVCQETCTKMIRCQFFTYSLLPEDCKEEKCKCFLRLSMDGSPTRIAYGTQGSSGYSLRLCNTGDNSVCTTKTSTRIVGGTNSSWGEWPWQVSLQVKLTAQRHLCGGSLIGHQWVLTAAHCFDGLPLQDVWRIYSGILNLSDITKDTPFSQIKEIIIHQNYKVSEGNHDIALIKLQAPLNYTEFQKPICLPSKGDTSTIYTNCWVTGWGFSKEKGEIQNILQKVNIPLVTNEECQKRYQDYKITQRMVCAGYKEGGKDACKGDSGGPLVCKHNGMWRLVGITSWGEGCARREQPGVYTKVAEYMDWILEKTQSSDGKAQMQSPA
Chain of human plasmin (P00747 97-810 limits assumed): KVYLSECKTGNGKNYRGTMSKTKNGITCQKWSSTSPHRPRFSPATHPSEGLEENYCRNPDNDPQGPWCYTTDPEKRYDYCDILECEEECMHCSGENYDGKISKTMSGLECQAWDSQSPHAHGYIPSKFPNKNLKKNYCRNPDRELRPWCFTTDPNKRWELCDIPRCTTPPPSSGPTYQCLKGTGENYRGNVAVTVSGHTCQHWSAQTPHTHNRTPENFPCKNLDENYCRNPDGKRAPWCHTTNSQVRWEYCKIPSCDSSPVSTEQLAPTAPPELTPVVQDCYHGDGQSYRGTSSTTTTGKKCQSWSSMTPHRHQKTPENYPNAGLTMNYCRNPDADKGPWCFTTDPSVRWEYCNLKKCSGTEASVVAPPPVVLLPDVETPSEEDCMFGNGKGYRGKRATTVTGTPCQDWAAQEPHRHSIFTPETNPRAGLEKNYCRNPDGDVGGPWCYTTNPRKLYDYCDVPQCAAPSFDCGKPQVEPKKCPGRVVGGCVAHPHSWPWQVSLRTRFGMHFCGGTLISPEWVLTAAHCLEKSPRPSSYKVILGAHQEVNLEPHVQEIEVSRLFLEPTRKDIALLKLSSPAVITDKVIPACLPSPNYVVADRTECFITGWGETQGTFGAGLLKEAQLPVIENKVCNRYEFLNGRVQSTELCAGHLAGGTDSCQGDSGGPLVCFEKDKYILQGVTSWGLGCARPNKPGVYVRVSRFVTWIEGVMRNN

binding result (secreted, soluble furin [1]): binds
B1: Gly49-R4R1-eglin (Tyr49 to Gly) (designed binder)
chain: SMGSELKSFPEVVGKTVDQAREYFTLHYPQYDVYFLPEGSRVTRDLRGNRVRVFYNPGTNVVNHVPHVG
notes: tested as partially purified extract

Ka (human plasmin): ~1e+06 M⁻¹ | Ka (human plasma kallikrein): ~1e+06 M⁻¹ | fold enhancement of affinity relative to L1-eglin (secreted, soluble furin [2]): 2 to 3 fold | fold increase in affinity relative to L1-eglin (secreted, soluble furin [2]): 2.5 fold | fold increase in affinity relative to L1-eglin (secreted, soluble Kex2 [3]): 10000 fold | Ki (secreted, soluble furin [4]): 53 µM | Ki (secreted, soluble Kex2 [5]): 0.03 µM | Ka (subtilisin Carlsberg [6]): 1e+10 M⁻¹ | Ka (trypsin [7]): 1.8e+10 M⁻¹
B2: R1-eglin (designed binder)
chain: SMGSELKSFPEVVGKTVDQAREYFTLHYPQYDVYFLPEGSPVTRDLRYNRVRVFYNPGTNVVNHVPHVG
notes: also called Arg45-eglin c

Ki (secreted, soluble furin [4]): 120 µM | Ki (secreted, soluble Kex2 [5]): ~500 µM | Ka (subtilisin Carlsberg [8]): 6.7e+10 M⁻¹ | Ka [9]: 4.5e+10 M⁻¹ | Ka (chymotrypsin): 1.1e+10 M⁻¹
B3: L1-eglin (other)
chain: SMGSELKSFPEVVGKTVDQAREYFTLHYPQYDVYFLPEGSPVTLDLRYNRVRVFYNPGTNVVNHVPHVG
notes: Recombinant eglin with the natural reactive site loop; also called wild type eglin; wild type eglin (Leu45)

binding result (secreted, soluble Kex2 [10]): binds
B4: Val49-R4R1-eglin (Tyr49 to Val) (designed binder)
chain: SMGSELKSFPEVVGKTVDQAREYFTLHYPQYDVYFLPEGSRVTRDLRVNRVRVFYNPGTNVVNHVPHVG
notes: as for B1

binding result (secreted, soluble Kex2 [10]): binds | binding result (secreted, soluble furin [11]): binds
B5: Tyr49Cys-R4R1-eglin (designed binder)
chain: SMGSELKSFPEVVGKTVDQAREYFTLHYPQYDVYFLPEGSRVTRDLRCNRVRVFYNPGTNVVNHVPHVG
notes: N-terminal Met removed; also called the Cys variant

fold preference for furin over PC7 (secreted, soluble furin [12]): 42 fold | Ka (secreted, soluble furin [13]): 3.7e+09 M⁻¹ | Ka (human PC7): 8.7e+07 M⁻¹ | Ka (secreted, soluble Kex2 [14]): 2.4e+10 M⁻¹
B6: V33D49-R4R1-eglin (designed binder)
chain: SMGSELKSFPEVVGKTVDQAREYFTLHYPQYVVYFLPEGSRVTRDLRDNRVRVFYNPGTNVVNHVPHVG
notes: N-terminal Met removed; also called Asp49Val33-R4R1-eglin-c

binding result (secreted, soluble furin [1]): binds
B7: Pro38Leu Tyr49Cys R4R1-eglin (designed binder)
chain: SMGSELKSFPEVVGKTVDQAREYFTLHYPQYDVYFLLEGSRVTRDLRCNRVRVFYNPGTNVVNHVPHVG
notes: as for B1

Ka (trypsin [15]): 4.4e+10 M⁻¹ | fold increase in affinity relative to L1-eglin (secreted, soluble furin [2]): 33 fold | fold increase in affinity relative to R1-eglin (secreted, soluble furin [2]): 15 fold | fold higher affinity of Kex2 than of furin (secreted, soluble Kex2 [3]): ~10000 fold | fold increase in Ka relative to R1-eglin (secreted, soluble Kex2 [3]): 88 fold | fold increase in affinity relative to L1-eglin (secreted, soluble Kex2 [3]): 1.5e+06 fold | Ki (secreted, soluble furin [4]): 3.6 µM | Ki (secreted, soluble Kex2 [5]): 0.00034 µM | Ka (subtilisin Carlsberg [6]): 6.6e+10 M⁻¹ | half-life (t1/2) of the complex (secreted, soluble Kex2 [16]): 3 h
B8: M4R1-eglin (designed binder)
chain: SMGSELKSFPEVVGKTVDQAREYFTLHYPQYDVYFLPEGSMVTRDLRYNRVRVFYNPGTNVVNHVPHVG
notes: N-terminal Met removed
